According to paper PMC10549244 (RSC Chemical Biology, 2023):

Biological target: the molecule itself
Test: crystal structure

B1: SonM, borosin α-N-methyltransferase (wild type) (enzyme, Shewanella oneidensis MR-1)
chain: MGSLVCVGTGLQLAGQISVLSRSYIEHADIVFSLLPDGFSQRWLTKLNPNVINLQQFYAQNGEVKNRRDTYEQMVNAILDAVRAGKKTVCALYGHPGVFACVSHMAITRAKAEGFSAKMEPGISAEACLWADLGIDPGNSGHQSFEASQFMFFNHVPDPTTHLLLWQIAIAGEHTLTQFHTSSDRLQILVEQLNQWYPLDHEVVIYEAANLPIQAPRIERLPLANLPQAHLMPISTLLIPPAKKLEYNYAILAKLGIGPEDLG
stoichiometry N: 2
